Experimental findings from patent US11498974 (BIOARCTIC, dated 2022) are described below.

The target in one assay is Aβ protofibrils (UniProt P05067). In words: inhibition ELISA; reference: Aβ monomers. A general note: ELISA stands for enzyme-linked immunosorbent assay.
For assay [1], the target named is recombinant transferrin receptor protein (Sinobiological) (UniProt Q62351). In words: competition TfR ELISA; references: 8D3 and 8D3-F(ab′)2-h158.
For assay [2] the target is unchanged. In words: competition ELISA on coated recombinant TfR; competitor 2.5 nM biotinylated scFv8D3.
Assay [3] shares this target. In words: TfR competition ELISA, FIG. 2D; reference: RmAb158-scFv8D3.
Assay [4] has the same target. As to the kind of experiment: competition TfR ELISA; reference: RmAb158-scFv8D3.
For assay [5], the target named is T1, recombinant transferrin receptor protein (Sinobiological) (UniProt Q62351 89-763, limits assumed).
T1 construct: Construct limits are unknown; also called TfR; recombinant TfR protein
T1 sequence (Q62351 89-763 limits assumed): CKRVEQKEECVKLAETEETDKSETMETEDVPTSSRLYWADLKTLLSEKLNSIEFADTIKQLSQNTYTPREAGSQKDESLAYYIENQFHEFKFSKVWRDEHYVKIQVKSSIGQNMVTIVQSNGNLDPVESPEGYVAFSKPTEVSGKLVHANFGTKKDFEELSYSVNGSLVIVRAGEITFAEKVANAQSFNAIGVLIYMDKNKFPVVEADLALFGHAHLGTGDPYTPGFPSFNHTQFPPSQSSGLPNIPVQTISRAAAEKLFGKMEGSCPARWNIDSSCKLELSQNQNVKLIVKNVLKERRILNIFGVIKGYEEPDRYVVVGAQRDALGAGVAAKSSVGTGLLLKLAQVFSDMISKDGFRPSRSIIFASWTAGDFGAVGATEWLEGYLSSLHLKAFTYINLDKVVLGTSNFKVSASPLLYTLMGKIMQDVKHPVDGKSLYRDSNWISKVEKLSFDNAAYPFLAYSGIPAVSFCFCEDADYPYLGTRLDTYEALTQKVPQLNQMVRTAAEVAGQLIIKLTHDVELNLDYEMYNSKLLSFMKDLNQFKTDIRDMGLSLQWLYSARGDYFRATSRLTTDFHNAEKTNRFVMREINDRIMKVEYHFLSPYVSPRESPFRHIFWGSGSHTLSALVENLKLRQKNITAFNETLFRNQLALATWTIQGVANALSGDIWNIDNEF
As to the kind of experiment: TfR competition ELISA, FIG. 2D; reference: RmAb158-scFv8D3.

For assay [6], the target named is T1, recombinant transferrin receptor …. In words: competition ELISA on coated recombinant TfR; competitor 2.5 nM biotinylated scFv8D3.

One may read the Kd as the free concentration of one partner at which half of the binding sites on the other are occupied at equilibrium, for simple one-to-one binding.

Sequence of recombinant transferrin receptor protein (Sinobiological) (UniProt Q62351) (Q62351 89-763 limits assumed): as above

Consider RmAb158-scFv8D3 (bispecific antibody), for which the fold stronger binding to protofibrils than to monomers in the assay with Aβ protofibrils was determined as 500 fold. The fold lower avidity in assay [1] stood at 10 fold. Also, the dissociation constant (Kd) in assay [2] came to 8 nM.
In the case of “chemically conjugated fusion protein 8D3-F(ab′)2-h158 (bispecific antibody)”, the fold stronger binding in assay [3] was found to be 10 fold. In addition, the dissociation constant (Kd) in assay [2] was 0.69 nM.
With scFv8D3, the fold higher Kd in assay [4] is 2 fold. Besides, the dissociation constant (Kd) in assay [2] was found to be 15 nM.

B1: anti-TfR antibody 8D3 (antibody, V domains shown)
VH: EVQLVESGGGLVQPGNSLTLSCVASGFTFSNYGMHWIRQAPKKGLEWIAMIYYDSSKMNYADTVKGRFTISRDNSKNTLYLEMNSLRSEDTAMYYCAVPTSHYVVDVWGQGVSVTVSS
VL: DIQMTQSPASLSASLEEIVTITCQASQDIGNWLAWYQQKPGKSPQLLIYGATSLADGVPSRFSGSRSGTQFSLKISRVQVEDIGIYYCLQAYNTPWTFGGGTKLELK
In the case of B1, the fold stronger binding in assay [5] is ~10 fold. The dissociation constant Kd in assay [6] worked out at 0.8 nM.
